Article PMC3779351 (Journal of Molecular Biology, 2013)

Assays:
Assay in all cases: SPR
GST-Cul5^NTD His48Ala = GST-Cul5^NTD His48Ala (mouse, UniProt Q9D5V5 1-384, His48Ala | Val341Arg | Leu345Asp)
GST-Cul5^NTD Leu52Ala = GST-Cul5^NTD Leu52Ala (mouse, UniProt Q9D5V5 1-384, Leu52Ala | Val341Arg | Leu345Asp)
GST-Cul5^NTD (wild type) = GST-Cul5^NTD (wild type) (mouse, UniProt Q9D5V5 1-384, Val341Arg | Leu345Asp)
GST-Cul5^NTD Gln113Ala = GST-Cul5^NTD Gln113Ala (mouse, UniProt Q9D5V5 1-384, Gln113Ala | Val341Arg | Leu345Asp)
Sequence of GST-Cul5^NTD Gln113Ala (Q9D5V5 1-384 Q113A/V341R/L345D): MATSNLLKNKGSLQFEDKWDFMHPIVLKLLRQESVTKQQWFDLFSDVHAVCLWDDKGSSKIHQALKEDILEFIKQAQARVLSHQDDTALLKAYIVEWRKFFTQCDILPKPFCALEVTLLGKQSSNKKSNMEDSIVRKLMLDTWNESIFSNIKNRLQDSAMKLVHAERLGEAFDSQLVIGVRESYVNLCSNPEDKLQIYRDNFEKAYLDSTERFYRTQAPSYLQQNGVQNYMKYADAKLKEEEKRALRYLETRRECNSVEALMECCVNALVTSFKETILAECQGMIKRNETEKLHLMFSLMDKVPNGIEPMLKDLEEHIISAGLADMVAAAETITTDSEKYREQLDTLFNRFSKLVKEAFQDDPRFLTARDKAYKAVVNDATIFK

GST-Cul5^NTD Phe41Ala = GST-Cul5^NTD Phe41Ala (mouse, UniProt Q9D5V5 1-384, Phe41Ala | Val341Arg | Leu345Asp)
Sequence of GST-Cul5^NTD Phe41Ala (Q9D5V5 1-384 F41A/V341R/L345D): as the sequence (Q9D5V5 1-384 Q113A/V341R/L345D) above, with F41A, A113Q counted along it

Sequence of GST-Cul5^NTD Leu52Ala (Q9D5V5 1-384 L52A/V341R/L345D): as the sequence (Q9D5V5 1-384 Q113A/V341R/L345D) above, with L52A, A113Q counted along it
Sequence of GST-Cul5^NTD His48Ala (Q9D5V5 1-384 H48A/V341R/L345D): as the sequence (Q9D5V5 1-384 Q113A/V341R/L345D) above, with H48A, A113Q counted along it
Sequence of GST-Cul5^NTD (wild type) (Q9D5V5 1-384 V341R/L345D): as the sequence (Q9D5V5 1-384 Q113A/V341R/L345D) above, with A113Q counted along it

B1: ASB9–Elongin B/C ternary complex (wild type) (complex)
chain 1: SDWSPMHEAAIHGHQLSLRNLISQGWAVNIITADHVSPLHEACLGGHLSCVKILLKHGAQVNGVTADWHTPLFNACVSGSWDCVNLLLQHGASVQPESDLASPIHEAARRGHVECVNSLIAYGGNIDHKISHLGTPLYLACENQQRACVKKLLESGADVNQGKGQDSPLHAVARTASEELACLLMDFGADTQAKNAEGKRPVELVPPESPLAQLFLEREGPPSLMQLCRLRIRKCFGIQQHHKITKLVLPEDLKQFLLHL
chain 2: […]
chain 3: […]
fold loss in affinity against wild-type Cul5 (GST-Cul5^NTD His48Ala): 50 fold | binding result (GST-Cul5^NTD Leu52Ala): binds | binding result (GST-Cul5^NTD (wild type)): binds | binding result (GST-Cul5^NTD Gln113Ala): binds | fold loss in affinity against wild-type Cul5 (GST-Cul5^NTD Phe41Ala): 50 fold
